The values below come from PMC12172022, “Overexpression of TaPIP1A enhances drought and salt stress tolerance in Arabidopsis: cross-species conservation and molecular dynamics”.

This data set concerns the target MBP-TaWRKY71 (Triticum aestivum (wheat) cv. KN9204, UniProt A0A3S6GV84 1-300). As to the kind of experiment: EMSA; complex signal weakened by 200-fold unlabeled competitor; LightShift chemiluminescent EMSA, 6% gel (printed as SDS-PAGE); 25 min at room temperature; probe annealed in 10 mM Tris-HCl pH 7.6, 1 mM EDTA, 50 mM NaCl; binding buffer not stated. As to conditions: protein: recombinant; tags: N-terminal MBP (pMALC2X); label: 5' biotin; blunt.

MBP-TaWRKY71, sequence (A0A3S6GV84 entry or part of it): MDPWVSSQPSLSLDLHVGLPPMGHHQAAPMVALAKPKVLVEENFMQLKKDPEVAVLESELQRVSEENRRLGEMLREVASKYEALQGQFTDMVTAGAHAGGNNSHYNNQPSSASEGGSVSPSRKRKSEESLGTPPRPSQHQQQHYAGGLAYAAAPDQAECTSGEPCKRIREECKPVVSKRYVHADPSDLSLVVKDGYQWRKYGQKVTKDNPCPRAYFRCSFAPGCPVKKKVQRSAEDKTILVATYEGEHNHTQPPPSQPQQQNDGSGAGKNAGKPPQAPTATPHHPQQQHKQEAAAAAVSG

B1: P-W probe (TaPIP1A promoter) (dsDNA)
DNA 1: CATGACATGACAGGTGAGGTGACACCACAAG
DNA 2: CTTGTGGTGTCACCTCACCTGTCATGTCATG
As for B1, the binding result was “binds”.
